# Test results as given in the Immune Epitope Database (IEDB).
# pIC50, pKd: −log10 of the molar value.
# Experiments:
# [1] = molecular target: HLA-B*07:02; assay: IEDB peptide-MHC binding, purified MHC/competitive/fluorescence; ≥ and ≤ were set here for values at or beyond the usual limits of such assays
# [2] = molecular target: HLA-A*02:01; assay: IEDB peptide-MHC binding, purified MHC/competitive/radioactivity; filed as Kd, often an IC50 or EC50 that approximates it; ≥ and ≤ were set here for values at or beyond the usual limits of such assays
# [3] = molecular target: HLA-B*08:01; assay: as above
# [4] = molecular target: HLA-A*02:03; assay: as above; conditions: source organism: Dengue virus 3 Sri Lanka/1266/2000
# [5] = molecular target: HLA-A*02:17; assay: as above
# [6] = molecular target: HLA-A*11:01; assay: IEDB peptide-MHC binding, purified MHC/competitive/fluorescence; filed as Kd, often an IC50 or EC50 that approximates it; ≥ and ≤ were set here for values at or beyond the usual limits of such assays
# [7] = molecular target: HLA-A*02:03; assay: as above; conditions: source organism: Variola virus
# [8] = molecular target: HLA-B*27:05; assay: IEDB peptide-MHC binding, purified MHC/direct/fluorescence; filed as Kd, often an IC50 or EC50 that approximates it; ≥ and ≤ were set here for values at or beyond the usual limits of such assays; conditions: source organism: Camelpox virus M-96
# [9] = molecular target: HLA-A*26:01; assay: as above; conditions: source organism: Camelpox virus M-96
# [10] = molecular target: HLA-B*40:01; assay: as above; conditions: source organism: Camelpox virus M-96
# [11] = molecular target: HLA-A*02:01; assay: as above; conditions: source organism: Camelpox virus M-96
# [12] = molecular target: HLA-B*57:01; assay: as above; conditions: source organism: Camelpox virus M-96
# [13] = molecular target: HLA-B*46:01; assay: as above; conditions: source organism: Camelpox virus M-96
# [14] = molecular target: HLA-B*48:01; assay: as above; conditions: source organism: Camelpox virus M-96
# [15] = molecular target: HLA-A*01:01; assay: as above; conditions: source organism: Camelpox virus M-96
# [16] = molecular target: HLA-B*58:01; assay: as above; conditions: source organism: Camelpox virus M-96
# [17] = molecular target: HLA-A*69:01; assay: as above; conditions: source organism: Camelpox virus M-96
# [18] = molecular target: HLA-B*15:01; assay: as above; conditions: source organism: Camelpox virus M-96
# [19] = molecular target: HLA-A*31:01; assay: as above; conditions: source organism: Camelpox virus M-96
# [20] = molecular target: HLA-B*15:17; assay: as above; conditions: source organism: Camelpox virus M-96
# [21] = molecular target: HLA-A*03:01; assay: as above; conditions: source organism: Camelpox virus M-96
# [22] = molecular target: HLA-B*08:01; assay: IEDB peptide-MHC binding, purified MHC/competitive/fluorescence; filed as Kd, often an IC50 or EC50 that approximates it; ≥ and ≤ were set here for values at or beyond the usual limits of such assays
# [23] = molecular target: HLA-B*15:01; assay: as above; conditions: source organism: Vaccinia virus WR
# [24] = molecular target: HLA-A*33:01; assay: IEDB peptide-MHC binding, purified MHC/competitive/radioactivity; filed as Kd, often an IC50 or EC50 that approximates it; ≥ and ≤ were set here for values at or beyond the usual limits of such assays; conditions: source organism: Vaccinia virus WR
# [25] = molecular target: HLA-A*68:01; assay: as above; conditions: source organism: Vaccinia virus WR
# [26] = molecular target: HLA-A*11:01; assay: IEDB peptide-MHC binding, purified MHC/competitive/fluorescence; ≥ and ≤ were set here for values at or beyond the usual limits of such assays
# [27] = molecular target: HLA-A*24:02; assay: as above
# [28] = molecular target: HLA-A*03:01; assay: as above
# [29] = molecular target: HLA-A*26:01; assay: IEDB peptide-MHC binding, purified MHC/competitive/fluorescence; filed as Kd, often an IC50 or EC50 that approximates it; ≥ and ≤ were set here for values at or beyond the usual limits of such assays; conditions: source organism: Cryptosporidium parvum Iowa II
# [30] = molecular target: HLA-B*18:01; assay: as above; conditions: source organism: Cryptosporidium parvum Iowa II
# [31] = molecular target: HLA-B*46:01; assay: as above; conditions: source organism: Cryptosporidium parvum Iowa II
# [32] = molecular target: HLA-B*39:01; assay: as above; conditions: source organism: Cryptosporidium parvum Iowa II
# [33] = molecular target: HLA-B*51:01; assay: as above; conditions: source organism: Cryptosporidium parvum Iowa II
# [34] = molecular target: HLA-A*02:12; assay: as above; conditions: source organism: Cryptosporidium parvum Iowa II
# [35] = molecular target: HLA-A*02:19; assay: as above; conditions: source organism: Cryptosporidium parvum Iowa II
# [36] = molecular target: HLA-A*29:02; assay: as above
# [37] = molecular target: HLA-B*27:03; assay: as above; conditions: source organism: Cryptosporidium parvum Iowa II
# [38] = molecular target: HLA-A*03:01; assay: as above; conditions: source organism: Cryptosporidium parvum Iowa II
# [39] = molecular target: HLA-A*02:01; assay: IEDB peptide-MHC binding, purified MHC/competitive/fluorescence; ≥ and ≤ were set here for values at or beyond the usual limits of such assays
# [40] = molecular target: HLA-B*15:01; assay: as above
# [41] = molecular target: HLA-C*15:02; assay: IEDB peptide-MHC binding, purified MHC/direct/fluorescence; filed as Kd, often an IC50 or EC50 that approximates it; ≥ and ≤ were set here for values at or beyond the usual limits of such assays
# [42] = molecular target: HLA-A*24:03; assay: as above; conditions: source organism: Vibrio cholerae
# [43] = molecular target: HLA-C*14:02; assay: as above
# [44] = source organism: Zaire ebolavirus
# [45] = source organism: Dengue virus 3 Sri Lanka/1266/2000
# [46] = source organism: Vaccinia virus WR
# [47] = source organism: Sudan ebolavirus
# [48] = source organism: Dengue virus 2 Jamaica/1409/1983
# [49] = source organism: Vibrio cholerae 2740-80
# [50] = source organism: Clostridium botulinum A str. ATCC 3502
sequence,measurement,setting,value
ADDETSSLP,pIC50,[1]; [44],≤ 3.76
CLMMILPAA,pKd,[2]; [45],8.92
same,pKd,[3]; [45],5.97
same,pKd,[4],8.98
same,pKd,[5]; [45],6.36
DILASIIDY,pKd,[6]; source organism: Variola virus,≤ 4.70
same,pKd,[7],5.73
same,pKd,[8],≤ 4.70
same,pKd,[9],6.44
same,pKd,[10],≤ 4.70
same,pKd,[11],≤ 4.70
same,pKd,[12],≤ 4.70
same,pKd,[13],≤ 4.70
same,pKd,[14],≤ 4.70
same,pKd,[15],≤ 4.70
same,pKd,[16],≤ 4.70
same,pKd,[17],≤ 4.70
same,pKd,[18],≤ 4.70
same,pKd,[19],≤ 4.70
same,pKd,[20],6.52
same,pKd,[21],≤ 4.70
EIKDRILSY,pKd,[6]; [46],≤ 4.70
same,pKd,[22]; [46],5.70
same,pKd,[23],6.78
same,pKd,[8],≤ 4.70
same,pKd,[9],8.52
same,pKd,[10],≤ 4.70
same,pKd,[11],≤ 4.70
same,pKd,[12],≤ 4.70
same,pKd,[14],≤ 4.70
same,pKd,[15],≤ 4.70
same,pKd,[16],≤ 4.70
same,pKd,[17],≤ 4.70
same,pKd,[19],≤ 4.70
same,pKd,[20],6.20
same,pKd,[21],≤ 4.70
same,pKd,[24],≤ 4.69
same,pKd,[25],6.94
FVFTLTVPSER,pKd,[6]; source organism: Influenza A virus (A/swine/Hannover/1/1981(H1N1)),5.55
IFSAWISHR,pIC50,[26]; source organism: Variola virus,≤ 4.15
same,pIC50,[1]; source organism: Variola virus,≤ 3.24
same,pIC50,[27]; source organism: Variola virus,7.39
same,pIC50,[28]; source organism: Variola virus,6.00
KIVPLPPMY,pKd,[29],≤ 4.70
same,pKd,[30],≤ 4.70
same,pKd,[31],≤ 4.70
same,pKd,[32],≤ 4.70
same,pKd,[33],≤ 4.70
same,pKd,[34],≤ 4.70
same,pKd,[35],≤ 4.70
same,pKd,[36]; source organism: Cryptosporidium parvum Iowa II,6.56
same,pKd,[37],≤ 4.70
same,pKd,[38],6.10
KLFLESGAV,pIC50,[39]; [44],5.76
same,pIC50,[40]; [44],≤ 4.09
same,pIC50,[27]; [44],≤ 3.74
same,pIC50,[28]; [44],≤ 3.55
KLYLVDYGL,pIC50,[40]; [46],4.45
same,pIC50,[27]; [46],4.78
same,pIC50,[28]; [46],≤ 3.89
KQDRSDGYF,pIC50,[40]; source organism: Vaccinia virus Copenhagen,4.22
LFKIDNNTF,pIC50,[40]; [47],4.84
same,pIC50,[27]; [47],7.60
LMGLGKGWPL,pKd,[2]; [48],6.79
same,pKd,[3]; [48],6.52
same,pKd,[5]; [48],6.04
LQVSDVDKL,pIC50,[39]; [44],5.25
same,pIC50,[40]; [44],≤ 4.12
LYKSINVEY,pIC50,[40]; [46],5.12
same,pIC50,[27]; [46],6.96
QARRMVQAM,pKd,[22]; source organism: Influenza A virus (A/Wellington/8/2004(H3N2)),7.06
QLNDTIHLH,pIC50,[39]; [47],4.40
same,pIC50,[26]; [47],5.22
same,pIC50,[40]; [47],4.27
same,pIC50,[28]; [47],4.30
RFNNLTVYF,pKd,[41]; [49],≤ 4.70
same,pKd,[42],8.48
same,pKd,[43]; [49],5.54
RPIQNVPGP,pIC50,[39]; [44],≤ 3.33
same,pIC50,[1]; [44],4.54
RPQKIWMAP,pIC50,[1]; [44],5.15
SNRTPTVAP,pIC50,[39]; [44],≤ 3.72
same,pIC50,[1]; [44],4.38
same,pIC50,[27]; [44],≤ 4.03
SPGMVPLHI,pIC50,[1]; [47],5.18
same,pIC50,[27]; [47],4.61
VIILFQRTF,pIC50,[39]; [44],≤ 3.09
same,pIC50,[40]; [44],≤ 4.07
same,pIC50,[27]; [44],7.25
YMIGYTAYY,pKd,[36]; [50],≥ 10.00
same,pKd,[41]; [50],5.40
same,pKd,[43]; [50],≥ 9.00
